# Experimental data from PMC8050779.
# How the values were obtained:
# [1] = molecular target: oxytocin ion channel-coupled receptor with the T4 phage lysozyme domain, OXTR(T4L) fused to Kir6.2 (not stated | T4 phage) (UniProt P30559)
# [2] = molecular target: oxytocin ion channel-coupled receptor with the T4 phage lysozyme domain, OXTR(T4L) fused to Kir6.2 (not stated | T4 phage) (UniProt P30559); remark: listed apart in the source
# oxytocin, sequence (P01178 whole entry, looked up, the tested form may be a part): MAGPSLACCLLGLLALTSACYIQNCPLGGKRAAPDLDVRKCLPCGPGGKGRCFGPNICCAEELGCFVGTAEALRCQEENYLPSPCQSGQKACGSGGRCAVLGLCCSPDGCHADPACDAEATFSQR
# UniProt P30559, sequence (P30559 whole entry, looked up, the tested form may be a part): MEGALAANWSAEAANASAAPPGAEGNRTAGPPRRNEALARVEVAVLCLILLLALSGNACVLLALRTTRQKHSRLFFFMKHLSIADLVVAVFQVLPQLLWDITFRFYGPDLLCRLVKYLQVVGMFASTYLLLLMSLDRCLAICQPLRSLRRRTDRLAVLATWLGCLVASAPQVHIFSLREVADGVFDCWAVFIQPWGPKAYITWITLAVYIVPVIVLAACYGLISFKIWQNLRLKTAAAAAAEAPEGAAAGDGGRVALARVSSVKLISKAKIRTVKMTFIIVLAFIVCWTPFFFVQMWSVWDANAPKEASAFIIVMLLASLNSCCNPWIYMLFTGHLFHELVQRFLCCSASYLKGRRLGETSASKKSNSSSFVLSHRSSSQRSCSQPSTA
substance,measurement,setting,value
oxytocin (from UniProt P01178 20-28) (peptide),"amplitude of ICCR activation by 1 μM oxytocin, TEVC, after co-incubation with 20 mM MβCD and 5 μM oxytocin for at least 3 h and washing (% of the basal current)",[1],100
same,"amplitude of ICCR activation by 1 μM oxytocin, TEVC, control without MβCD (Buffer + 5 μM oxytocin, at least 3 h) (% of the basal current)",[1],120
same,"ICCR activation by 1 μM oxytocin, TEVC, after cholesterol depletion and repletion with cholesterol (% of the control before incubation)",[2],70
same,"ICCR activation by 1 μM oxytocin, TEVC, after cholesterol depletion and repletion with cholesteryl hemi-succinate (CHS) (% of the control level before incubation)",[2],45
